The values that follow come from patent publication US20040018971A1 (published 2004).

Where no end group is shown, it is not given here. [ ]: non-standard residue; d: D form. Abu = CC[C@H](N)C(=O)O

The chains are these.
B1: HER2/neu peptide, position 296, 8 amino acids (peptide)
peptide: VTACPYNY
notes: Synthetic peptide; also called Her2/neu.296
B2: HER2/neu peptide, position 293, 9 amino acids (peptide)
peptide: ASCVTACPY
notes: Synthetic peptide; also called Her2/neu.293
B3: Her2/neu.1174.F1I8 (peptide)
peptide: FPGKNGVI
notes: 8-mer analog of the HER2/neu peptide starting at position 1174
B4: HER2/neu peptide, position 828, 9 amino acids (peptide)
peptide: QIAKGMSYL
notes: Synthetic peptide; also called HER2/neu 828-836
B5: HER2/neu peptide, position 711, 10 amino acids (peptide)
peptide: QMRILKETEL
notes: Synthetic peptide; also called HER2/neu 711-720
B6: HER2/neu peptide, position 24, 10 amino acids (peptide)
peptide: QVCTGTDMKL
notes: Synthetic peptide; also called HER2/neu 24-33
B7: HER2/neu peptide, position 54, 9 amino acids (peptide)
peptide: QVVQGNLEL
notes: Synthetic peptide; also called HER2/neu 54-62
B8: HER2/neu peptide, position 627, 9 amino acids (peptide)
peptide: PINCTHSCV
notes: Synthetic peptide; also called HER2/neu 627-635
B9: HER2/neu peptide, position 90, 10 amino acids (peptide)
peptide: QVRQVPLQRL
notes: Synthetic peptide; also called HER2/neu 90-99
B10: HER2/neu peptide, position 484, 9 amino acids (peptide)
peptide: QLFRNPHQA
notes: Synthetic peptide; also called HER2/neu 484-492
B11: HER2/neu peptide, position 1119, 10 amino acids (peptide)
peptide: PLPSETDGYV
notes: Synthetic peptide; also called HER2/neu 1119-1128
B12: HER2/neu peptide, position 160, 9 amino acids (peptide)
peptide: QLCYQDTIL
notes: Synthetic peptide; also called HER2/neu 160-168
B13: HER2/neu peptide, position 999, 10 amino acids (peptide)
peptide: PLDSTFYRSL
notes: Synthetic peptide; also called HER2/neu 999-1008
B14: Her2/neu.218.B3B7K9 (peptide)
peptide: TV[Abu]AGG[Abu]AK
notes: synthetic analog peptide; also called TVBAGGBAK

One assay addresses T1, HLA-A*0101 (human).
T1 construct: also called HLA-A1
In words: competition with 125I-labelled probe peptide for purified HLA-A*0101, gel filtration; ratio = IC50 of standard peptide 944.02 / IC50 of test peptide. (In general: Size exclusion chromatography separates by hydrodynamic size, large species first.)
Take LIQRNPQLCY [HER2/neu peptide, position 154, 10 amino acids, listing 1 of 2 here]: the relative binding ratio is 0.03 ratio.

As to B1, the relative binding ratio worked out at 0.1 ratio. Same read-out and setting: then ASPLDSTFY [HER2/neu peptide, position 997, 9 amino acids, listing 1 of 2 here], with 0.029 ratio; and VLQGLPREY [HER2/neu peptide, position 546, 9 amino acids], with 0.005 ratio; and CVTACPYNY [HER2/neu peptide, position 295, 9 amino acids, listing 1 of 2 here], with 0.0042 ratio. With GSGAFGTVY [HER2/neu peptide, position 727, 9 amino acids, listing 1 of 2 here], the relative binding ratio is 0.0011 ratio. The same measure, in the same setting: then TLEEITGY [HER2/neu peptide, position 402, 8 amino acids], with -0.0021 ratio; and SMPNPEGRY [HER2/neu peptide, position 281, 9 amino acids, listing 1 of 2 here], with 0.0028 ratio; and MTFGAKPY [HER2/neu peptide, position 916, 8 amino acids], with -0.0021 ratio. In the case of LMTFGAKPY [HER2/neu peptide, position 915, 9 amino acids, listing 1 of 2 here], the relative binding ratio amounted to 0.0011 ratio.

On to FSPAFDNLY [HER2/neu peptide, position 1213, 9 amino acids, listing 1 of 2 here], for which the relative binding ratio came to 0.043 ratio. For PLPSETDGY [HER2/neu peptide, position 1119, 9 amino acids, listing 1 of 2 here], the relative binding ratio is 0.0017 ratio.

Regarding ETLEEITGY [HER2/neu peptide, position 401, 9 amino acids], the relative binding ratio was 0.043 ratio. Take PTAENPEY [HER2/neu peptide, position 1241, 8 amino acids]: the relative binding ratio was 0.003 ratio. For the molecule B2, the relative binding ratio is 0.055 ratio. Consider ELHCPALVTY [HER2/neu peptide, position 265, 10 amino acids, listing 1 of 2 here], for which the relative binding ratio worked out at 0.0015 ratio. Turning to QIAKGMSY [HER2/neu peptide, position 828, 8 amino acids], the relative binding ratio is -0.0021 ratio.

A further assay has as its target HLA-B*0702 (human). In words: competition vs 125I-labelled probe peptide, purified HLA, gel filtration.
For B3, the IC50 (in general, the concentration needed to halve the response being measured) stood at 458 nM.

Another assay concerns the target HLA-B*5401 (human). Described as above.
On to B3, for which the IC50 amounted to 385 nM.

The next assay addresses HLA-B*5101 (human). Described as above.
With B3, the IC50 amounted to 177 nM.

For a further assay, the target named is T2, HLA-A*0101 (human).
T2 construct: also called HLA-A1
In words: competition with 125I-labelled probe peptide for purified HLA-A*0101, gel filtration.
Consider CVTACPYNY [HER2/neu peptide, position 295, 9 amino acids, listing 2 of 2 here], for which the relative binding ratio was 0.0042 ratio (IC50 of standard peptide / IC50 of test peptide). On to VVQGNLELTY [HER2/neu peptide, position 55, 10 amino acids], for which the relative binding ratio was 0.018 ratio (IC50 of standard peptide / IC50 of test peptide).

Turning to PLPSETDGY [HER2/neu peptide, position 1119, 9 amino acids, listing 2 of 2 here], the relative binding ratio is 0.0017 ratio (IC50 of standard peptide / IC50 of test peptide). Still for that read-out and setting: then ELHCPALVTY [HER2/neu peptide, position 265, 10 amino acids, listing 2 of 2 here], with 0.0015 ratio (IC50 of standard peptide / IC50 of test peptide); and SMPNPEGRY [HER2/neu peptide, position 281, 9 amino acids, listing 2 of 2 here], with 0.0028 ratio (IC50 of standard peptide / IC50 of test peptide).

Regarding LMTFGAKPY [HER2/neu peptide, position 915, 9 amino acids, listing 2 of 2 here], the relative binding ratio is 0.0011 ratio (IC50 of standard peptide / IC50 of test peptide). Consider YVMAGVGSPY [HER2/neu peptide, position 772, 10 amino acids], for which the relative binding ratio is 1.1 ratio (IC50 of standard peptide / IC50 of test peptide). With ELMTFGAKPY [HER2/neu peptide, position 914, 10 amino acids], the relative binding ratio is 0.0082 ratio (IC50 of standard peptide / IC50 of test peptide).

Consider PLTCSPQPEY [HER2/neu peptide, position 1130, 10 amino acids], for which the relative binding ratio is 0.0072 ratio (IC50 of standard peptide / IC50 of test peptide).

ASPLDSTFY [HER2/neu peptide, position 997, 9 amino acids, listing 2 of 2 here]: the relative binding ratio is 0.029 ratio (IC50 of standard peptide / IC50 of test peptide). As to FSPAFDNLY [HER2/neu peptide, position 1213, 9 amino acids, listing 2 of 2 here], the relative binding ratio is 0.043 ratio (IC50 of standard peptide / IC50 of test peptide). For RVLQGLPREY [HER2/neu peptide, position 545, 10 amino acids], the relative binding ratio was 0.0015 ratio (IC50 of standard peptide / IC50 of test peptide). In the case of ASCVTACPY (also called Her2/neu.293), the relative binding ratio is 0.055 ratio (IC50 of standard peptide / IC50 of test peptide). Consider TLEEITGYLY (also called Her2/neu.402) [HER2/neu peptide, position 402, 10 amino acids], for which the relative binding ratio is 1.1 ratio (IC50 of standard peptide / IC50 of test peptide).

For LIQRNPQLCY [HER2/neu peptide, position 154, 10 amino acids, listing 2 of 2 here], the relative binding ratio is 0.03 ratio (IC50 of standard peptide / IC50 of test peptide). As to GSGAFGTVY [HER2/neu peptide, position 727, 9 amino acids, listing 2 of 2 here], the relative binding ratio is 0.0011 ratio (IC50 of standard peptide / IC50 of test peptide). As to RLLDIDETEY [HER2/neu peptide, position 868, 10 amino acids], the relative binding ratio was 1.3 ratio (IC50 of standard peptide / IC50 of test peptide).

Another assay deals with T3, HLA-A*0201 (purified HLA class I molecule) (human).
T3 construct: also called HLA-A2.1
In words: competition with 125I-labelled standard peptide for purified HLA, gel filtration.
Consider PLQPEQLQV (Synthetic peptide) [HER2/neu peptide, position 391, 9 amino acids], for which the “relative binding ratio (IC50 of standard peptide / IC50 of test peptide)” value came to 0.0002 ratio. With RACHPCSPM (Synthetic peptide) [HER2/neu peptide, position 190, 9 amino acids], the “relative binding ratio (IC50 of standard peptide / IC50 of test peptide)” value was 0.0001 ratio. Still for that read-out and setting: then B4, with 0.0006 ratio. Turning to PLTSIISAVV (Synthetic peptide) [HER2/neu peptide, position 650, 10 amino acids], the “relative binding ratio (IC50 of standard peptide / IC50 of test peptide)” value came out at 0.0003 ratio.

In the case of B5, the “relative binding ratio (IC50 of standard peptide / IC50 of test peptide)” value was 0.0001 ratio. Regarding B6, the “relative binding ratio (IC50 of standard peptide / IC50 of test peptide)” value is 0.0001 ratio. As to PLTSIISAV (Synthetic peptide) [HER2/neu peptide, position 650, 9 amino acids], the “relative binding ratio (IC50 of standard peptide / IC50 of test peptide)” value was 0.0015 ratio. As for B7, the “relative binding ratio (IC50 of standard peptide / IC50 of test peptide)” value was 0.0001 ratio. As for B8, the “relative binding ratio (IC50 of standard peptide / IC50 of test peptide)” value was 0.0002 ratio.

With B9, the “relative binding ratio (IC50 of standard peptide / IC50 of test peptide)” value worked out at 0.0001 ratio. For the molecule B10, the “relative binding ratio (IC50 of standard peptide / IC50 of test peptide)” value was 0.0062 ratio. The same measure, in the same setting: then QVPLQRLRIV (Synthetic peptide) [HER2/neu peptide, position 93, 10 amino acids], with 0.0001 ratio.

PVTGASPGGL (Synthetic peptide) [HER2/neu peptide, position 128, 10 amino acids]: the “relative binding ratio (IC50 of standard peptide / IC50 of test peptide)” value amounted to 0.0001 ratio.

With QLRSLTEIL (Synthetic peptide) [HER2/neu peptide, position 141, 9 amino acids], the “relative binding ratio (IC50 of standard peptide / IC50 of test peptide)” value amounted to 0.0008 ratio. Take B11: the “relative binding ratio (IC50 of standard peptide / IC50 of test peptide)” value is 0.0001 ratio. On to B12, for which the “relative binding ratio (IC50 of standard peptide / IC50 of test peptide)” value was 0.0001 ratio. The same measure, in the same setting: under B13 stands 0.0001 ratio.

The target in the next assay is HLA-A*0301 (human). In words: inhibition of 125I probe peptide binding to purified HLA.
The molecule B14 returned a half-inhibitory concentration (IC50) of 24 nM. On the same count and under the same terms, then IVWLGLRSLK (synthetic analog peptide) [Her2/neu.450.V2K10], with 3.9 nM; and IVKGGVLIQR (synthetic analog peptide) [Her2/neu.148.V2], with 275 nM.

The next assay deals with HLA-A*6801 (human). Described as above.
Take TVCAGGCAR (synthetic peptide) [Her2/neu.218]: the IC50 came out at 83 nM. In turn, B14 showed an IC50 of 7.3 nM. With IVWLGLRSLK (synthetic analog peptide) [Her2/neu.450.V2K10], the IC50 was determined as 12 nM.

IVKGGVLIQR (synthetic analog peptide) [Her2/neu.148.V2] registered an IC50 of 29 nM.

In another assay the target is HLA-A*3101 (human). The assay is described as above.
For IVKGGVLIQR (synthetic analog peptide) [Her2/neu.148.V2], the IC50 was 72 nM.

The target in a further assay is HLA-A*1101 (human). The assay is described as above.
TVCAGGCAR (synthetic peptide) [Her2/neu.218] showed an IC50 of 261 nM. Same read-out and setting: under B14 stands 29 nM; under IVWLGLRSLK (synthetic analog peptide) [Her2/neu.450.V2K10], 128 nM. IVKGGVLIQR (synthetic analog peptide) [Her2/neu.148.V2] showed an IC50 of 7500 nM.
